Measured values reported in patent US11103459B2, “Method of drug formulation based on increasing the affinity of active agents for crystalline microparticle surfaces” (MannKind Corporation, priority 2005, dated 2021).
Like-named read-outs stand apart in the source and are kept apart here. Where no end group is shown, it is not given here.

Columns and labels:
[1] = Active agent/FDKP microparticle adsorption studies (loading curves, HPLC); type: physicochemical; details: for binding of GLP-1 onto the FDKP microparticle surface: 100 mM TMAO
Description: Aqueous samples at varying pH and at 20° C. (unless otherwise noted) were analyzed.
The association of active agent with diketopiperazine (DKP) particles in suspension was evaluated by conducting adsorption studies.
(§1) Unbound active agent in the supernatant was filtered off the suspension. […] The amount of active agent in both the supernatant and reconstituted fractions was quantitated by HPLC. A series of experiments were conducted in which conditions employed included use of additives such as salts, osmolytes, chaotropes and kosmotropes, and alcohols.
The concentration of the chaotrope or kosmotrope in the samples was held constant at 100 mM and the pH varied from 2.0 to 5.0. Chaotropes or kosmotropes were selected from the following: NaSCN, CsCl, Na2SO4, (CH3)3N—HCl, […], Na Citrate, and NaClO4. The control indicates no chaotrope or kosmotrope were added.
The concentration of the osmolyte (stabilizer) in the samples was held constant at 100 mM and the pH varied from about 2.0 to about 5.0. The osmolytes were selected from hexylene-glycol (Hex-Gly), trehalose, glycine, PEG, TMAO, mannitol and proline; the control indicates no osmolyte.
In assessing the effect of modifiers on the active agent that allows for adsorption to the microparticle surface by a hydrophobic mechanism, the effect of alcohols were examined. […] The effect of each alcohol was observed over a pH range of 2.0 to 5.0. The alcohols used were trifluoroethanol (TFE) and hexafluoroisopropanol (HFIP). Each alcohol was evaluated at varying concentrations which include 5%, 10%, 15%, or 20% v/v.
(§2) The amount of active agent detected in reconstituted microparticle-free control samples as a function of pH and NaCl concentration was assessed. The pH was controlled with a 20 mM potassium phosphate/20 mM potassium acetate mixture.

[2] = Active agent detected in reconstituted microparticle-free control samples (precipitation, HPLC); type: physicochemical
Description: as §1
Similar observations were disclosed in U.S. Provisional Application Ser. No. 60/744,882.
The effect of TFE was less pronounced, and at the lower pHs tested was detrimental. […] The mass ratios in FIGS. 3C-D reflect both adsorbed and precipitated active agent although precipitation is an increasingly minor component as the pH decreased toward 3.0.
as §2

[3] = in the presence of NaSCN, NaClO4, Na2SO4, NaNO3 and Na citrate; cited from earlier work

Question: For glucagon-like peptide 1 [GLP-1], which “affinity for adsorption of GLP-1 onto FDKP particle surface” value ([1]; 100 mM PEG and proline, pH 2.0 to 4.0) is on record?
Answer: improved the affinity

Question: What about the “binding of GLP-1 onto the FDKP microparticle surface” value ([1]; pH 2.0) of the same substance?
Answer: more effective than PEG or proline

Question: What about the “binding of GLP-1 onto the FDKP microparticle surface” value ([1]; pH 3.0 and above) of the same substance?
Answer: modestly detrimental

Question: What about the “affinity of GLP-1 for the FDKP microparticles” value ([1]; 100 mM chaotropes and kosmotropes, pH 2.0-4.0, greater effect at lower pH) of the same substance?
Answer: improved affinity

Question: And the “affinity of GLP-1 for the microparticle surface” value ([1]; HFIP and TFE at 5% and 10%, pH 2.0-5.0)?
Answer: improved affinity

Question: And the “binding of GLP-1 to FDKP particles” value ([1]; NaCl, pH 4.0 and above)?
Answer: reduction in binding

Question: And the “effect of TFE on GLP-1 affinity for the microparticle surface” value ([1]; TFE, lower pHs tested)?
Answer: detrimental

Question: And the “binding (adsorption) of GLP-1 to FDKP particles” value ([1]; all NaCl concentrations tested, pH about 2.0 to about 3.5)?
Answer: enhanced binding

Question: What about the “GLP-1 peptide detected in reconstituted microparticle-free control samples” value ([2]; 10% HFIP and TFE, pH 4.0) of the same substance?
Answer: 0.13 to 0.19 mg/mL

Question: And the “GLP-1 peptide detected in reconstituted microparticle-free control samples” value ([2]; 10% HFIP or TFE, pH 2.0)?
Answer: no GLP-1 was detected

Question: And the “GLP-1 peptide detected in reconstituted microparticle-free control samples” value [3]?
Answer: 0.02 to 0.04 mg/mL

Question: For “ghrelin (GSSFLSPEHQRVQQRKESKKPPAKLQPR; ends and bridges not checked; UniProt Q9UBU3 24-51, looked up)”, which “affinity of ghrelin for the microparticle surface vs control” value ([1]; 100 mM mannitol, PEG, glycine, Hex-Gly, trehalose, pH about 4.0 to 5.0) is on record?
Answer: greater affinity

Question: And the “affinity of ghrelin for the microparticle surface (mass ratio of ghrelin to FDKP particles)” value ([1]; HFIP and TFE at 5%, 10%, 15%, 20% v/v, pH 2.0-4.0)?
Answer: greatly improved affinity

Question: For insulin [reference compound], which “affinity of insulin for the FDKP microparticle surface vs control” value ([1]; 100 mM chaotropes and kosmotropes, pH 3.0, […] insulin, 5 mg/mL FDKP) is on record?
Answer: improved the affinity

Question: What about the “affinity of insulin for the FDKP microparticle surface vs control” value ([1]; 100 mM chaotropes and kosmotropes, pH 4) of the same substance?
Answer: this effect was not observed

Question: What about the “adsorption of insulin to the FDKP microparticle surface vs control” value ([1]; 100 mM chaotropes and kosmotropes, pH 5.0 (insulin precipitated)) of the same substance?
Answer: interfered with the adsorption

Question: And the “affinity of insulin for the FDKP particle surface” value ([1]; 100 mM osmolytes (PEG, glycine, trehalose, mannitol, Hex-Gly), pH 3.0 to 5.0)?
Answer: significantly improved affinity

Question: And the “binding (adsorption) of insulin onto FDKP particles” value ([1]; 100-500 mM NaCl, pH about 2.5 to about 3.5)?
Answer: increased binding

Question: And the “adsorption of insulin to the FDKP particle” value ([1]; all NaCl concentrations tested, pH about 4.0 to about 5.0)?
Answer: reduction in the adsorption

Question: Which results are given for parathyroid hormone [PTH]?
Answer: binding of PTH to the FDKP particles ([1]; 250 to 1000 mM NaCl, pH about 2.0 to about 3.5): enhanced binding; binding of PTH to the microparticle ([1]; in the presence of salt, pH about 3.5 to about 5.0): decreased; affinity of PTH for the FDKP microparticle surface ([1]; strong chaotropes NaSCN and NaClO4, pH 4.0 to about 4.5): greater
